According to publication PMC6618058:

Assays:
[1] = target: Biotinylated HLA-A*02:01 with the MART-1(26-35) decapeptide …
[2] = target: HLA-A*02:01 with the MART-1(27-35) nonapeptide …, not tagged

MEL5 TCR
dH [1]: -14 kcal/mol
MIP‐1β secretion (ELISA) by CD8+ T cells transduced with the MEL5 TCR in response to titrated … presented by T2 cells; sensitivity against that of DMF4 TCR-transduced T cells [2]: 100 fold
